Laboratory results reported in the nanobody polyreactivity screen of Harvey et al. (2022).

Assay: yeast display, Sf9 membrane polyspecificity reagent, FACS + sequencing; frameworks hold sequencing errors
In short: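 Galactose induction of a Saccharomyces cerevisiae BJ5465 synthetic nanobody display library ran 36–48 hours. The cells were then stained for 1 hour at 4 °C with 10% biotinylated, detergent-solubilized Sf9 membrane reagent, pulled down on streptavidin microbeads and FACS-sorted into low and high (top ~1%) gates on expression and reagent-binding fluorescence. Labels for polyreactivity follow the gate of origin.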

| Sequence | polyreactivity (PSR sort gate) |
| --- | --- |
| QVQLVESGGGLVQAGGSLRLSCAASGSTFLVYAMGWSRQAPGKERELVAAIRGGGSTNYADSVKGRFTISRDNAKNTVYLQMNSLKPEDTGVYYCAAYLLYTPSMDYWGQGTQVTVSS | low polyreactivity |
| QVQLVESGGGLVQAGGSLRLSCAASGSTFLWNAMGWYRQAPAKERELVAAISYSGGSTYYADSVKGRFTISRDNAMNTVYLQKNSLKPEDTAFYYCAKEWFYDPYPPGYDSWGQGPQVTVSS | low polyreactivity |
| QVQLVESGGGLVQAGGSLRLSCAASGSTFLWYAMGWYTQAPGKERELVATISGSGGSTYYADSVKGRFTISRDNAKNTVYLQMNSLKPEDTAGYYCAAGTLVQRSRWVTFSAYDGDYWGQGTQVTVSS | high polyreactivity |
| QVQLVESGGGLVQAGGSLRLSCAASGSTFLYVMGWYRQAPGKERELVAAISESGGSTYYADSVKGRFTISRDNAKNTVYLQMNSLKPEDTAVYYCAADLQTGLQYRYYRVDYWGQGTQVTVSS | low polyreactivity |
| QVQLVESGGGLVQAGGSLRLSCAASGSTFLYYAKGWSRQAPGKERELVAAISGSGGSTYYADSVKGRFTISRDNAKNTVYLQMNSLKPEDTAVYYCNAVARRHGLGPYDYWGQGTQVTVSS | high polyreactivity |
| QVQLVESGGGLVQAGGSLRLSCAASGSTFLYYAMGWYRPAPGKESELVAGISASGGSTYYADSVKGRFTISRDNAKITVYLQMNSLKPEDTAVYYCARYAGFPYTQCDYWGQGTQVTVSS | high polyreactivity |
| QVQLVESGGGLVQAGGSLRLSCAASGSTFLYYAMGWYRQAPGKEREFVAAISISGGSTYYADSVKGRFTISRDNAKNTVYLHMNSLKPEDTAVYYFAARKKEYKPGNYWGQGTQVTVSS | low polyreactivity |
| QVQLVESGGGLVQAGGSLRLSCAASGSTFLYYAMGWYRQAPGKERELVAAIDWSDTSTYYADSVKGRFTISRDNAKNTVYLQMNSLKPEDTAVYYCAADTYLVDGDYWGQGTQETVSS | low polyreactivity |
| QVQLVESGGGLVQAGGSLRLSCAASGSTFLYYAMGWYRQAPGKERELVAVISWSGVSTYYADSVKGRFTISRDNAKNTVYLQMNSLKPEDTPVYYCNTGNQYIRTYGYWGQGSQVTVSS | low polyreactivity |
| QVQLVESGGGLVQAGGSLRLSCAASGSTFLYYDMGWYRQAPGKERELVADITWSGSGTYYADSVKGRFTISRDNAKNTVYLQMNSLKPEDTAVYYCDADDTWRGDQYFYSYDYWGQGTQVTVSS | low polyreactivity |
| QVQLVESGGGLVQAGGSLRLSCAASGSTFNFNVMGWYRQAPGKERELVAAISSSGGNTYYADSVKGRFTISRDNAKNTVYLQMNSLKPEDTAVYYCAAEYEEWYSVFLYDYWGQGTQVTVSS | high polyreactivity |
| QVQLVESGGGLVQAGGSLRLSCAASGSTFNFYAMGWYRQAPGKEREFVAAITSSGDSTYYADSVKGRFTISRDNAKNTVYLQLNSLKPEDTAVYYCAARLRWRYSYDYWGQGTQVTVSS | high polyreactivity |
| QVQLVESGGGLVQAGGSLRLSCAASGSTFNGYAMGWYRQAPGKERELVAAITSSGSRTYYADSVKGRFTISRDNAKNTVYLQMNSLKPVDTAVYYCNAGKLARTYFRSSSVSPGDYWGQGTQVTVSS | high polyreactivity |
| QVQLVESGGGLVQAGGSLRLSCAASGSTFNHYAMGWYRQAPGKDRELVAAITKSGGSTYADSVKGRFTISRDNAKNSVYLQMNSLKPEDTAVYFCAAGRRKYGTKGRGDYWGQGTQVTVSS | low polyreactivity |
| QVQLVESGGGLVQAGGSLRLSCAASGSTFNHYTMGWYRQAPGKERELVAAISSRGGGTYYADSVKGRFTISRDNAKNTVYLQMNSLKPEDTAVYYCAALISSGIRHSRDYWGQGTQVTVSS | high polyreactivity |
| QVQLVESGGGLVQAGGSLRLSCAASGSTFNINGMGWYRQAPGKERELVASITGSGGNTYYADSVKGRFTISRDNAKNTVYLQMNSLKPEDTAVYYCNTTLYTGQPGRTFDYWGQGTQVTVSS | low polyreactivity |
| QVQLVESGGGLVQAGGSLRLSCAASGSTFNKYTMGWYRQAPGKERELVAAISSIGGSTYYADSVKGRFTISRDNAKNTVYLQMNSLKPEDTAVYYCAAPYPIGHDWGQGTQVTVSS | low polyreactivity |
| QVQLVESGGGLVQAGGSLRLSCAASGSTFNLYAMGWYRQAPGKERELVAAISDGDSSTYYADSVKGRFTISRDNAKNTVYLQMNSLKPEDTAVYYCNARDDVYLITPYFLVYVNLDYWGQGTQVTVSS | low polyreactivity |
| QVQLVESGGGLVQAGGSLRLSCAASGSTFNLYAMGWYRQAPGKERELVASISRSGVSTYYADSVKGRFTISRDNAKNTVYLQMNSLKPEDTAVYYCAVDKVLYRLYTGMDYWGQGTQVTVSS | low polyreactivity |
| QVQLVESGGGLVQAGGSLRLSCAASGSTFNNYAMGSYRQAPGKVREFVAAINGSGGSTYYADSVKGRFTISRDNAKNTVYLQLNSRKPEDPAVYYCAADVSATAYYDLMDYWVQGTQVTVSS | low polyreactivity |
| QVQLVESGGGLVQAGGSLRLSCAASGSTFNQNAMGWYRQATGKERELVAAITVDGSSTYYADSVKGRFTISRDNAKNTVYLQMNSLKPEDTAVYYCAAGYSARSSGYTGGYDYWGQGTQVTVSS | high polyreactivity |

| Sequence | polyreactivity (PSR sort gate) |
| --- | --- |
| QVQLVESGGGLVQAGGSLRLSCAASGSTFNRYAMGWYRQAPGKERELVASITTSDSTNYADSVNGRFTISRDNANNTVFLQINSLNPEDTAVYYCNAEVRGVWYTYDYWGQGTHVTVSS | low polyreactivity |
| QVQLVESGGGLVQAGGSLRLSCAASGSTFNTYAMGWYRQAPGKERELVASIRLRGGSTYYADSVKGRFTISRDNAKNTVYLQMNSLKPEDTAVYYCAARTWPWVLGGTQDDYWGQGTQVTVSS | low polyreactivity |
| QVQLVESGGGLVQAGGSLRLSCAASGSTFNVYAMGWYRQAPGKERDLVAAIDSGDSTNYADSVKGRFTISRDNAKNTVYLEMNSLKPEDTAVYYCAVGYWDSRYRYDWPNSDYWGQGTQVTVSS | low polyreactivity |
| QVQLVESGGGLVQAGGSLRLSCAASGSTFNVYGLGWYRQAPGKERELVAAINRDGITYADSVKGRFTISRDNAKNTVYLQMNSLKPEDTAVYYCAAGYSPYKGSAGYYWGQGTQVTVSS | low polyreactivity |
| QVQLVESGGGLVQAGGSLRLSCAASGSTFNWDAMGWYRQAPGQERELVAAISKSGGTTYYADSVKGRFTISRDNAKNTVYLQMNSLKPEDTAVYYCAAVRRYHSYPDGGYWGQGTQVTVSS | high polyreactivity |
| QVQLVESGGGLVQAGGSLRLSCAASGSTFNWNAMRWYRQPPGKERELVAAITSSGARTRYADSVKGRFTISRDNAKNTVYLQMNSLKPEDTAVYYCAAYVYISPSGYYYWGLGTQVTVSS | low polyreactivity |
| QVQLVESGGGLVQAGGSLRLSCAASGSTFNWYAMGWYRQAPGKEMELVAAITSTGGSTYADSVKGRFTISRDNAKNTVYLQMNSLKPEDTAVYYCNVDTSSPSRRDYDYWGQGTQVTVSS | low polyreactivity |
| QVQLVESGGGLVQAGGSLRLSCAASGSTFPFYAMGWYRQAPGKERELVAAIRYTGNTYYADSVKGRFTISRDNAKNTVFLLMISLKPEDTAVYYCAADADYWAYGYWGHGTQVTVSS | low polyreactivity |
| QVQLVESGGGLVQAGGSLRLSCAASGSTFPFYAMGWYRQAPGKERELVATISSDGSTNYADSVKGRFTISRDNAKNTDYLQMNSLKPEDTAVYYCNALARWCAYYDYGYWGQGTQVTVSS | low polyreactivity |
| QVQLVESGGGLVQAGGSLRLSCAASGSTFPFYVMGWYRQAPGKERELVASITATGSSTYYADSVKGRFTISRDNAKNTVYLQMNRLKPEDTAVYYCAAPYFGWYLGYYWYREYDYWGQGTQVTVSS | low polyreactivity |
| QVQLVESGGGLVQAGGSLRLSCAASGSTFPGNAMGWYRQAPGKERELVAAIDTSGGSTYYADSVKGRFTISRDNAKNTVYLQMNSLKAEDTAVYYCDADYLIEMDYWGQGTQVTVSS | low polyreactivity |
| QVQLVESGGGLVQAGGSLRLSCAASGSTFPGYAMGWYRQAPGKERELVAAISKRGGSTYYADSVKGRFTISRDNAKNTVYLQMNSLKPEDTAVYYCATVSRKYSLDYWGQGTQVTVSS | high polyreactivity |
| QVQLVESGGGLVQAGGSLRLSCAASGSTFPGYAMGWYRQAPGKERELVAAITWSGVTTYYADTVKGRFTMSRDNAKNTVYIQMNSLKPEDTAVYYCATGTLYSDGAIYGYWGQATQVTVSS | low polyreactivity |
| QVQLVESGGGLVQAGGSLRLSCAASGSTFPKYAMGWYRQAPGKERELVAAITFTGSSTYYADSVKGRFTISRDNAKNTVYLQMNSLKPEDTAVYYCNAVYYTGYYWGQGTQVTVSS | low polyreactivity |
| QVQLVESGGGLVQAGGSLRLSCAASGSTFPLYAMGWYRQAPGKERELVATITGSGGSTNYADSVKGRFTISRDNAKNTVYLQMNSLKPEDTAVYYCNARRRRLVSYYYWGQGTQVTVSS | high polyreactivity |
| QVQLVESGGGLVQAGGSLRLSCAASGSTFPLYAMGWYRQAPGKEREMVAAITGGGGRTYYADSVKGRFTISRDNAKNTVYLQMNSLKPEDTAVYYCNAVVYLTNYWYDYWGQGTQVTVSS | low polyreactivity |
| QVQLVESGGGLVQAGGSLRLSCAASGSTFPNYAMGWYRQAPGKERELVASISVTTGSTYYADSVKGRFTISRDYAKNTVYLQMNSLKPEDTAVYYCAKRTSSRKFRGAYNYWGQGTQVTVST | high polyreactivity |
| QVQLVESGGGLVQAGGSLRLSCAASGSTFPNYPMGWYRQAPGKERELVAAITWSGGSTDYADSVKGRFTISRDNAKNTVYLQMNSLKPEDTAVYYCNADFGYWWDGRRYDYWGQGTQVTVSS | low polyreactivity |
| QVQLVESGGGLVQAGGSLRLSCAASGSTFPPNAMGRYRQAPGKERELVAAISFSSGRTYYADSVKGRFTFSRDNAKNTVYLQMNSLKPEDTAVYYCAADHGYLGQGTQVTVSS | low polyreactivity |
| QVQLVESGGGLVQAGGSLRLSCAASGSTFPPNAMGWYRQAPGKERELVAGINGSGGRTYYADSVKGRFTISRDNAKNTVYLQLNCMKPEDTAVYYCAAEGTTIWFDLTYDDWYEYYSWGQGTQVTVSS | high polyreactivity |
